Data: publication PMC3631511

Tests used:
[1] = molecular target: ΔE22-Aβ_(1-39) (Japanese mutant Aβ); experiment: critical concentration
[2] = molecular target: ΔE22-Aβ_(1-39) (Japanese mutant Aβ); experiment: fluorescence polarisation

ΔE22-Aβ_(1-39) (Japanese mutant Aβ) (peptide)
critical concentration (Cr) [1]: 0.167 µM
k (first-order rate constant of the increase in anisotropy on aggregation) [2]: 0.08 s⁻¹
